Measurements published in article PMC9333443, “Structural insights into Pot1-ssDNA, Pot1-Tpz1 and Tpz1-Ccq1 Interactions within fission yeast shelterin complex” (PLoS Genetics, 2022).
One block for each binder: values may come before it.

Legend:
[1] = biological target: T1, Pot1DBD (Schizosaccharomyces pombe, UniProt O13988 2-339); experiment: ITC; Kd only in figure; ITC: 25 mM Tris-HCl pH 8.0, 150 mM NaCl, 20 C; gel filtration (complex purification): 25 mM Tris-HCl pH 8.0, 150 mM NaCl, 5 mM DTT; conditions: protein: recombinant; tags: His6-SUMO (N-terminal, removed with ULP1); single strand
T1 sequence: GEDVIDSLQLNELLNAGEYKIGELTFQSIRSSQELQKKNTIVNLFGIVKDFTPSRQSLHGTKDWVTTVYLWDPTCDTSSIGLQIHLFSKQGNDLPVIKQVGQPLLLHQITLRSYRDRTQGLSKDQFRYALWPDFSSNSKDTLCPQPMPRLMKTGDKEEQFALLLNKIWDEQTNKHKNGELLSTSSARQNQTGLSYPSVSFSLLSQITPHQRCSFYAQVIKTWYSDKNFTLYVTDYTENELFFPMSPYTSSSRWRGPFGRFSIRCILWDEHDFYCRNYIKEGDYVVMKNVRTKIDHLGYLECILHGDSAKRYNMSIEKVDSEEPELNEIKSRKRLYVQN

[2] = biological target: T2, Pot1 full length;Tpz1PIM (Schizosaccharomyces …, UniProt O13988;O14246 1-555;164-240, |); experiment: complex reconstitution; stable complex after mixing with Tel18; ITC: 25 mM Tris-HCl pH 8.0, 150 mM NaCl, 20 C; gel filtration (complex purification): 25 mM Tris-HCl pH 8.0, 150 mM NaCl, 5 mM DTT; conditions: protein: recombinant;recombinant, tags: His6-SUMO/GST system, co-expressed with Tpz1PIM;His6-SUMO/GST system, copies: 1;1, single strand
T2 sequence 1: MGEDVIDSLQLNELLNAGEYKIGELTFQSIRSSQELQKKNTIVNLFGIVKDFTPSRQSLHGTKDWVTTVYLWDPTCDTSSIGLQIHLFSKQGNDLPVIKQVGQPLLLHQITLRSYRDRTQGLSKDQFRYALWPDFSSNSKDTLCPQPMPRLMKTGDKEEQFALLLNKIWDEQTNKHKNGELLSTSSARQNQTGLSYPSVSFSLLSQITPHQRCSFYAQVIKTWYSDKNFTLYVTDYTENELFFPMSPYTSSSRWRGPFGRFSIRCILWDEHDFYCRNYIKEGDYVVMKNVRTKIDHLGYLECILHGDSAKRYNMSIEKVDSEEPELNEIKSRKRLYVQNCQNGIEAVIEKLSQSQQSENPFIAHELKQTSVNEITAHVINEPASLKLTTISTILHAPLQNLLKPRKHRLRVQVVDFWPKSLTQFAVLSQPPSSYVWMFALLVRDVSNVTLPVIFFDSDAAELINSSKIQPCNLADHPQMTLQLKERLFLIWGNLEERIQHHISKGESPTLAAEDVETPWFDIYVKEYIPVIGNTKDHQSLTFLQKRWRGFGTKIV
T2 sequence 2: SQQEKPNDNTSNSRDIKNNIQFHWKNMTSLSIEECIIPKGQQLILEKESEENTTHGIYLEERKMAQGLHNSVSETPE

[3] = biological target: T3, Ccq1 (residues 123-439), without the deletion (S. pombe, UniProt Q10432 123-439); experiment: SEC; co-expressed and co-purified complexes on gel filtration (calibrated for Tpz1CBM-Ccq1TAD); 25 mM Tris-HCl pH 8.0, 150 mM NaCl, 5 mM dithiothreitol; conditions: both partners purified
T3 construct: The methods describe only the deleted form; this undeleted form gave crystals that diffracted to about 4.0 Å; also called N-terminal region of Ccq1
T3 sequence (looked up): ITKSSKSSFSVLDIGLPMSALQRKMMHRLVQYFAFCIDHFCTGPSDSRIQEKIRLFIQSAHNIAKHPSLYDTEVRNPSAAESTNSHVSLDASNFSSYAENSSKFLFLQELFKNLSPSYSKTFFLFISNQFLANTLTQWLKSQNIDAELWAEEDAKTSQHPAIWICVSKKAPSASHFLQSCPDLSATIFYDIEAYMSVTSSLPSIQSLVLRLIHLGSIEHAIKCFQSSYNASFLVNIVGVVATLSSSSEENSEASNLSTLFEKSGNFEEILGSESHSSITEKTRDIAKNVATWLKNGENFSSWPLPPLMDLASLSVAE

[4] = biological target: T4, Ccq1TAD (Ccq1 123-439 with deletion of residues 199-215), purified (S. pombe, UniProt Q10432 123-439, deletion of residues 199–215); experiment: crystal structure; Tpz1CBM-Ccq1TAD complex, SAD, 2.4 Å; sitting drop at 4°C, 15% PEG4000, 200 mM potassium chloride, 50 mM magnesium chloride, 50 mM Tris-HCl pH 7.8; conditions: both partners purified
T4 construct: Two copies stand in the 2:2 complex with Tpz1CBM; not shown: His6, N-terminal, cleaved; SUMO, N-terminal, cleaved
T4 sequence (looked up): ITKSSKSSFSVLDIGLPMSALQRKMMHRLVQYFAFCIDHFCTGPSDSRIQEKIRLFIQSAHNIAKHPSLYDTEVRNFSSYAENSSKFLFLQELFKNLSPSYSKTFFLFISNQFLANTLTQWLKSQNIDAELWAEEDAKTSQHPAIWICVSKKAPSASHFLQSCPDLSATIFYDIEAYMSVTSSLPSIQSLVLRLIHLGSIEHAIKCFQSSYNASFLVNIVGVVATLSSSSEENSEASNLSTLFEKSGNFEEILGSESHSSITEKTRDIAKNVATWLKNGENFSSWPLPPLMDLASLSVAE

[5] = biological target: T1, Pot1DBD; experiment: gel filtration; 1:1 stoichiometry; ITC: 25 mM Tris-HCl pH 8.0, 150 mM NaCl, 20 C; gel filtration (complex purification): 25 mM Tris-HCl pH 8.0, 150 mM NaCl, 5 mM DTT; conditions: protein: recombinant; tags: His6-SUMO (N-terminal, removed with ULP1); single strand

Binder: GGTTACGGTTACGGT (ssDNA) [Tel15]
binding result [1]: binds

Binder: GGTTACAGGGGTTACGGT (ssDNA) [Tel18]
binding result [1]: binds
binding result [2]: binds

binding result [3]: binds
stoichiometry N [4]: 1 Tpz1CBM per Ccq1TAD (printed as 2:2)
Binder: EQIELEYKRKPIPDYDFMKGLETTLQELYVEHQSKKRRLELFQLTN (domain or fragment, S. pombe, UniProt O14246 425-470, looked up, not shown: GST, N-terminal, cleaved) [Tpz1CBM (Tpz1 425-470), purified]

Binder: GGTTACAGGGTTACGGT (ssDNA) [Tel17]
binding result [5]: binds
